Residue numbers refer to the chain shown, from its start.
B1: DARPin® protein #12 (designed binder)
chain: DLGWKLLDAAEIGQLDEVRILLKAGADVNAKDKQGITPLHIAAAHGHLEIVEVLLKAGADVNAKDEIGRTPLHLAAFKGHLEIVEVLLKAGADVNAQDIIGETPADLAAVRGHQDIAEVLQKAA
B2: DARPin® protein #20 (non-binding DARPin molecule) (designed binder)
chain: DLGKKLLEAARAGQDDEVRELLKAGADVNAKDKDGYTPLHLAAREGHLEIVEVLLKAGADVNAKDKDGYTPLHLAAREGHLEIVEVLLKAGADVNAQDKSGKTPADLAADAGHEDIAEVLQKAA
notes: Control
B3: DARPin® protein #13 (designed binder)
chain: DLGKKLLEAALEGQLDEVRELLKAGADVNAKDQEGYTPLHLAAALGHLEIVEVLLKAGADVNAKDQIGRTPLHLAAYKGHLEIVEVLLKAGADVNAQDIIGQTPADLAAQRGHQDIAEVLQKAA
B4: DARPin® protein #14 (designed binder)
chain: B3 chain with E8Q, Q33I

Assays:
[1] = target: T1, biotinylated extracellular domains of human CD123 with C-terminal Fc tag and Avi tag (bio.hCD123-Fc(kih)-Avi) (human, UniProt P26951 19-303, biotinylated with BirA-GST (Avi tag)); assay: SPR (ProteOn), bio.hCD123 on neutravidin-coated GLC chip, DARPin 100-1.2 nM, 1:1 Langmuir fit
T1 construct: Bought from Evitria; the second Fc chain and the number of CD123 arms are not described; also called biotinylated hCD123; recombinant human CD123 target; not shown: Avi tag
T1 sequence: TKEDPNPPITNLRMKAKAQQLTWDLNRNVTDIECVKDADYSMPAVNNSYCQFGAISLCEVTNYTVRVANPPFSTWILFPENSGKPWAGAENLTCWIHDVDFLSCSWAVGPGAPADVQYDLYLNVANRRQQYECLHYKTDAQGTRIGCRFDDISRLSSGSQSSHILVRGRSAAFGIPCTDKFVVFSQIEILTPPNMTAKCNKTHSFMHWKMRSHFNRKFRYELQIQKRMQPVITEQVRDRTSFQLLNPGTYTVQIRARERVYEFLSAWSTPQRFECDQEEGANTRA
Method: Moreover, the binding affinities of three additional purified ankyrin repeat proteins on recombinant human CD123 target were measured and analyzed with a procedure as described above for DARPin proteins #1, #3 to #9. Briefly, neutravidin was precoated on a GLC chip (BioRad) to a level of 6000 RU. In a second step, bio.hCD123 was immobilized to a level of 1030 RU. A serial dilution of 100, 33, 11, 3.7 and 1.2 nM was used to measure the binding of DARPin protein #12, DARPin protein #13 and DARPin protein #14 to bio.hCD123. For all described measurements, an association of 120 s and dissociation of 1200 s using a constant flow of 100 μl/min were applied. The CD123 target was regenerated with two different conditions (10 mM Glycine pH2.0 and 4M MgCl2) each applied for 30s. The signals were double referenced against interspot and the running buffer (PBST-PBS pH 7.4 containing 0.005% Tween 20®) treated control lane A6. The 1:1 Langmuir model was used for the fitting.
KD values were calculated from the estimated on- and off-rates using standard procedures known to the person skilled in the art. The values in Table 2b are averages of multiple replicates.

[2] = target: T2, CD123 expressed on the surface of Molm-13 (Molm-13 N1) tumor cells (human, UniProt P26951 19-378); assay: flow cytometry on CD123-expressing Molm-13 N1 tumor cells, monospecific format
T2 construct: whole, on cells; also called CD123-expressing tumor cells; CD123 expressed on tumor cells
T2 sequence (P26951 19-378): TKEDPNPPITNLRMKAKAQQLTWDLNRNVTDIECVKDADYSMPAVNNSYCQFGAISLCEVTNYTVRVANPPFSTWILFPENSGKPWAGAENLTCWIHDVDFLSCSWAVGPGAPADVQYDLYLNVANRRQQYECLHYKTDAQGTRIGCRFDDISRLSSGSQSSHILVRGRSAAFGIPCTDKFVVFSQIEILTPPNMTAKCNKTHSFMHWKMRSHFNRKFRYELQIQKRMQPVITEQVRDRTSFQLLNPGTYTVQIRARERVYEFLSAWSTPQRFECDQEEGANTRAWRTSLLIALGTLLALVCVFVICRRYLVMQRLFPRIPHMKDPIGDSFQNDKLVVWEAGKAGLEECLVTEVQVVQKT
Method: Binding of binding proteins of the invention to CD123 expressed on the surface of tumor cells was analyzed by fluorescence activated cell sorting (FACS) flow cytometry. For this purpose, CD123 expressing tumor cells (Molm-13 N1) were seeded at 100′000 cells per well in a 96 well plate. DARPin protein #2, DARPin protein #3, DARPin protein #9, DARPin protein #12, DARPin protein #13 and DARPin protein #14, in monospecific format, were titrated down in 1:5 dilution ratio starting at 2000 nM. Tumor cells were resuspended with diluted DARPin proteins and incubated for 60 minutes at 4° C. The assay was performed in PBS including 2% fetal bovine serum without human serum albumin (HSA). After washing twice with Phosphate Buffer saline (PBS), DARPin® protein specific tumor cell binding was detected by adding unlabeled primary anti-rabbit DARPin® antibody (anti-rabbit 1-1-1 antibody, CePower) at 2 ug/ml. An incubation step of at least 30 minutes at 4° C. followed. Afterwards, cells were washed with PBS and a secondary goat anti-rabbit antibody labelled with Alexa Fluor 488 antibody (ThermoFisher) at 2 ug/ml was added. The same incubation conditions applied. Finally, the cells were washed twice and resuspended in Cytofix fixation buffer (BD Biosciences) for 15 min at room temperature (RT).

[3] = target: T3, truncated CD123 target (D2/D3 domains), D2-D3-hCD123 (human, UniProt P26951 101-305); assay: HTRF, purified DARPin protein with truncated D2-D3-hCD123, hIgG-d2 and anti-His-Tb
T3 construct: domain: D2/D3; Bought from Evitria; Detected with hIgG-d2, so it probably carries an Fc tag; also called truncated target (D2-D3-hCD123)
T3 sequence (looked up): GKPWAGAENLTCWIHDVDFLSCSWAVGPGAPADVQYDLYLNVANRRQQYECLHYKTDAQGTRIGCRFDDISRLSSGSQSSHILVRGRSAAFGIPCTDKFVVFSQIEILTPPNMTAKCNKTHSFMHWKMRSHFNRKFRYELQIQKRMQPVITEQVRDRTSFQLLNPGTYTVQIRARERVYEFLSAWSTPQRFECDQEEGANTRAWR
Source text: (§1) The CD123 epitope bound by CD123-specific ankyrin repeat proteins of the invention was investigated using truncated CD123 target protein as well as competition ELISA and HTRF against the benchmark control molecule flotetuzumab-similar (CD3-CD123 specific DART®, purchased from Evitria) and the natural ligand IL-3 (purchased by Peprotech), First, full-length (NTD/D2/D3 domains) and truncated (D2/D3 domains) CD123 targets (purchased from Evitria) were applied in an HTRF binding assay in which they were incubated with DARPin® protein #1 and binding was detected by using either the HTRF reagents Anti 6His-d2 and Streptavidin-Tb for full-length CD123 or hIgG-d2 and anti-His-Tb for truncated CD123. […] The excitation of the reaction was measured at 340 nm and emission at 665 nm and the background at 340 nM and 620 nM respectively. […] Binding was detected by using either the HTRF reagents Anti 6His-d2 and Streptavidin-Tb for full-length CD123 or hIgG-d2 and anti-His-Tb for truncated CD123 target.

[4] = target: T1, biotinylated extracellular domains of …; assay: HTRF, full-length biotinylated hCD123-Fc(kih)-Avi
Source text: as §1

| Binder | Kd [1] | EC50 [2] | binding result [3] | binding result [4] |
| --- | --- | --- | --- | --- |
| B1 | 0.49 nM | 3.2 nM | – | – |
| B2 | – | – | no binding | no binding |
| B3 | 0.02 nM | 0.41 nM | – | – |
| B4 | 0.02 nM | 1.3 nM | – | – |

Source: patent publication US20240150475A1 (Molecular Partners, published 2024)
